US6410255B1, “Optical probes and assays” (priority 1999, dated 2002)
Like-named read-outs stand apart in the source and are kept apart here. *1 amine or outer side, *2 acyl side, *3 side chain or, on linkers, in order; H or OH if unused. Where a SMILES comes first, the peptide text is derived from it. Bridges are numbered along the chain shown (N, C = ends). Where no end group is shown, it is not given here. [ ]: non-standard residue; d: D form. Adda = CO[C@@H](Cc1ccccc1)[C@@H](C)/C=C(C)/C=C/[C@H](N[*:1])[C@H](C)C(=O)[*:2]; dAsp(3S-Me) = C[C@H](C(=O)[*:3])[C@@H](N[*:1])C(=O)[*:2]; d(γGlu) = O=C(O)[C@@H](CCC(=O)[*:2])N[*:1]; pS = N[C@@H](COP(=O)(O)O)C(=O)O; NMeDha = C=C(NC)C(=O)O

Experiments:
v-Abl kinase = target: T1, v-Abl kinase (Abelson murine leukemia virus, UniProt P00521); assay: v-Abl kinase phosphorylation of optical probe, fluorescence readout after chymotrypsin; format: biochemical
T1 construct: purchased Calbiochem

PP2A = PP2A (Homo sapiens, UniProt P67775); assay: PP2A inhibitor assay with optical probe; format: biochemical
Description: (§1) To determine if the optical probe phosphatase assay could detect inhibitors of PP2A, the phosphatase assay was performed in the presence or absence of 100 nM microcystin-LR. PP2A assays were set up as described above, and were incubated at 30 C for 2 hours. Reactions were diluted to 100 μL with 50 mM HEPES, pH 7.5 followed by the addition of chymotrypsin to 0.2 μM. Fluorescence values were measured on the Cytofluor after a 1.5 hour incubation at room temperature. As described above, treatment of the phosphorylated optical probe (SEQ. ID. NO: 23) with PP2A followed by chymotrypsin gave a final 460/530 ratio of 8.8±0.1. […] Thus, the optical probe based phosphatase assay can detect inhibitors of PP2A activity.

PP1 = PP1 (Homo sapiens, UniProt P62136); assay: PP1 inhibitor assay with optical probe; format: biochemical
Description: (§2) To determine if the optical probe protein phosphatase assay could detect inhibitors of PP1, the phosphatase assay was performed in the presence or absence of 1 μM microcystin-LR, a potent inhibitor of PP1. Phosphatase assays were set up as described above except the phosphatase was allowed to pre-incubate with microcystin-LR for 10 minutes before the addition of phosphorylated or non-phosphorylated optical probes (SEQ. ID. NO: 23). PP1 reactions were incubated at 30 C for 1 hour and then diluted to 100 μL in 50 mM HEPES, pH 7.5 followed by the addition of chymotrypsin to 0.2 μM. Fluorescence values were measured on the Cytofluor after a 2 hour incubation at room temperature as described above. After treatment of the phosphorylated optical probe with PP1 followed by chymotrypsin, the 460/530 ratio was 13.2±0.2. […] Thus, the present invention could be used to detect inhibitors of PP1 activity.

chymotrypsin [1] = target: T2, chymotrypsin (Bos taurus, UniProt P00766); assay: Control: effect of inhibitor on chymotrypsin cleavage of non-phosphorylated probe; format: biochemical
Description: as §2, §1

chymotrypsin [2] = target: T2, chymotrypsin; assay: Chymotrypsin cleavage of phosphorylated and non-phosphorylated tyrosine kinase optical probes; format: biochemical, bovine; parameters: purchased Calbiochem 230832
[3] = target: protein phosphatase 2A (PP2A) (Homo sapiens, UniProt P67775); assay: Protein phosphatase 2A dephosphorylation of optical probe; format: biochemical; conditions: 1.5 hour chymotrypsin incubation
Description: The optical probes were also evaluated to determine if they could be used to measure protein phosphatase 2A (PP2A) activity. Phosphorylated and non-phosphorylated samples of the CKI optical probes ([…]) were prepared and incubated with 0.03 units of PP2A as described above, except MnCl2 was not included. After dilution and addition of chymotrypsin as described above, fluorescence values were measured using a 96 well plate reader (Cytofluor). After a 1.5 hour chymotrypsin incubation, the 460/530 emission ratio of the phosphorylated optical probe was 1.8±0.2 (Table 18).

chymotrypsin [4] = target: T2, chymotrypsin; assay: Chymotrypsin cleavage of optical probe with or without casein kinase 1 phosphorylation; format: biochemical
Source text: To measure casein kinase 1 activity, an optical probe was designed as described above. In this case, the kinase substrate was designed so that the point of phosphorylation was located at the P′2 position (underlined in SEQ. I.D. NO: 17 below) with respect to the scissile bond cleaved by chymotrypsin, which enables the creation of a recognition motif suitable for casein kinase 1. A substrate peptide ([…], SEQ. ID. NO: 17) was synthesized and labeled with fluorescein isothiocyanate at the N-terminus and 7-hydroxycoumarin-3-carboxamide at the C-terminus as described in Example 1.
Samples of phosphorylated and non-phosphorylated optical probes were prepared and tested as described in Example 1. In this case, complete phosphorylation of the optical probe (1 μM) was obtained after room temperature incubation for 15 to 30 minutes in the presence of 500 Units of casein kinase 1 (New England BioLabs) in 50 mM Tris-Cl, pH 7.5, 10 mM MgCl2, 5 mM DTT, and 200 μM ATP.
To determine the relative proteolytic sensitivity of phosphorylated and non-phosphorylated optical probes, samples of both were incubated with various concentrations of chymotrypsin and the cleavage monitored by measuring the 460/530 emission ratio as described in Example 1.

[5] = target: protein phosphatase I (PPI) (Homo sapiens, UniProt P62136); assay: Protein phosphatase I dephosphorylation of optical probe; format: biochemical
Description: To determine if the optical probes could be used to detect serine/threonine phosphatase activities, samples of the casein kinase 1 specific phosphorylated optical probes were prepared and treated with various serine/threonine protein phosphatases. To do this, the casein kinase 1 optical probe ([…], SEQ. ID. NO: 17) (100 μM) was phosphorylated to completion with CKI (2000 units) in a 100 μL reaction containing 200 μM ATP for 5 hours at 30° C. A mock kinase reaction was performed which contained no ATP for preparation of control, non-phosphorylated optical probes. The resistance of the phosphorylated optical probe to chymotrypsin cleavage (data not shown) confirmed complete phosphorylation of the CKI-treated optical probe. Phosphorylated and non-phosphorylated samples of the optical probe (2 μM) were incubated in a 50 μL volume with or without 1 unit of the serine/threonine phosphatase protein phosphatase I (PPI) for 2 hours at 30° C. in a buffer consisting of 50 mM Tris-Cl, pH 7.0, 0.1 mM EDTA, 5 mM DTT, 0.01% Brij-35, and 1 mM MnCl2. The reactions were diluted to 100 μL with 50 mM HEPES, pH 7.5, incubated with chymotrypsin (0.2 μM) for 1 hour at room temperature, and fluorescence values were measured on the Cytofluor as described above. Before chymotrypsin addition all reactions had similar 460/530 ratios of about 1.2.

chymotrypsin [6] = target: T2, chymotrypsin; assay: Chymotrypsin cleavage of optical probe with or without ERK phosphorylation; format: biochemical; conditions: for 460/530 Emission Ratio, Negative Control (No Active Kinase) / 460/530 Emission Ratio, Positive Control (Active Kinase): 4 nM chymotrypsin
Description: This substrate (100 μM) was phosphorylated by incubation at 30 C for 3 hours in a 100 μL reaction containing 500 ng ERK (Biomol) and 500 μM ATP in a buffer consisting of 50 mM Tris-Cl, pH 7.5, 10 mM MgCl2, 1 mM EGTA, 2 mM DTT, and 0.01% Brij-35. To test the proteolytic sensitivity of phosphorylated and non-phosphorylated samples, 2 μL of the mock (no kinase) or kinase reaction was diluted to 100 μL in a buffer containing 50 mM HEPES, pH 7.5, 10 mM CaCl2, and 0.01% Brij-35, and incubated with chymotrypsin at a concentration of 4 nM. Cleavage reactions were monitored on the Cytofluor for 1 hr. […] The maximum fold difference in 460/530 ratio was about 15.2 and occurred after 30 minutes of cleavage.

[7] = no inhibitor, chymotrypsin 0.2 μM, 1.5 hour
[8] = no inhibitor, chymotrypsin 0.2 μM, 2 hour

T1 sequence (P00521 whole entry): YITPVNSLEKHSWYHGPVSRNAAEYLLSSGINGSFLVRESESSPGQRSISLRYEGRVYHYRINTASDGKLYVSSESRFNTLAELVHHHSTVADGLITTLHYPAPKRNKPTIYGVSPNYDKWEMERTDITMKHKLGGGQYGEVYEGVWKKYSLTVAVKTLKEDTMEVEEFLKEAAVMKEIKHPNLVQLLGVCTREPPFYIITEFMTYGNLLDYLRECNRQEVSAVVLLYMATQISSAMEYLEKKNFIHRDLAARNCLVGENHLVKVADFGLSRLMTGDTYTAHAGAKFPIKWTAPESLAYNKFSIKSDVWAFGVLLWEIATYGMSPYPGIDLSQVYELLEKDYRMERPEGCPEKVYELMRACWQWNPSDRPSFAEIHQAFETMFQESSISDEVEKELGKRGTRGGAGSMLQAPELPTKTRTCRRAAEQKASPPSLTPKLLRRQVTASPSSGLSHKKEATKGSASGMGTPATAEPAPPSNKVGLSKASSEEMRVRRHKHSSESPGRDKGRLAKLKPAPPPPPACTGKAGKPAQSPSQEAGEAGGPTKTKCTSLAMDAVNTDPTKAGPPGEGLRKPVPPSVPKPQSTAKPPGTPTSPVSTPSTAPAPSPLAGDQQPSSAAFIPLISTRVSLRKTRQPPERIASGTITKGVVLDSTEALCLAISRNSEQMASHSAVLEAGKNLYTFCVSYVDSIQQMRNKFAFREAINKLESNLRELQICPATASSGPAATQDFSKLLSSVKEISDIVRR
PP2A, sequence (P67775 whole entry): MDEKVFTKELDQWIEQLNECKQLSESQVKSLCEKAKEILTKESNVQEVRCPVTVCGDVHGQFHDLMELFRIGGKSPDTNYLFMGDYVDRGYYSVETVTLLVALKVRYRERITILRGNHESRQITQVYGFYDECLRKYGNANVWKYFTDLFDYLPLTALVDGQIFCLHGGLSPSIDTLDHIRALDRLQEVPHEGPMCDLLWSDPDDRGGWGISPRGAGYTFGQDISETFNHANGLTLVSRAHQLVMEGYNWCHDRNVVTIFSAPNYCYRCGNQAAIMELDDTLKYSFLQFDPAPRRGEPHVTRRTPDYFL
protein phosphatase 2A (PP2A), sequence (P67775 whole entry): as above
PP1, sequence (P62136 whole entry): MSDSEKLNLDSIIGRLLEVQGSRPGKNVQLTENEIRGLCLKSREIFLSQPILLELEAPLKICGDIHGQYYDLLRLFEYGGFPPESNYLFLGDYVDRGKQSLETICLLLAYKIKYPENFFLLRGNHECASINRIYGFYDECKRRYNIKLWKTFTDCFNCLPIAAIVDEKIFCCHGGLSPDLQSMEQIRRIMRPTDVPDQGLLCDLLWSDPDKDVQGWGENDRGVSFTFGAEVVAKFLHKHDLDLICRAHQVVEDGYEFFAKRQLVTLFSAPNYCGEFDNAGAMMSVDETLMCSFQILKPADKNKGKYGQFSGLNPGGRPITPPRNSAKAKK
protein phosphatase I (PPI), sequence (P62136 whole entry): as above

## Nc1ncnc2c1ncn2[C@@H]1O[C@H](COP(=O)(O)OP(=O)(O)OP(=O)(O)O)[C@@H](O)[C@H]1O [ATP]
v-Abl kinase; v-Abl, abl optical probe as substrate, read-out: apparent Km for ATP
  Km: 8 µM

## C=C1C(=O)N[C@H](C)C(=O)N[C@@H](CC(C)C)C(=O)N[C@@H](C(=O)O)[C@H](C)C(=O)N[C@@H](CCCNC(=N)N)C(=O)N[C@@H](/C=C/C(C)=C/[C@H](C)[C@H](Cc2ccccc2)OC)[C@H](C)C(=O)N[C@@H](C(=O)O)CCC(=O)N1C [microcystin-LR, reference compound] (R[Adda][d(γGlu)][NMeDha][dA]L[dAsp(3S-Me)]-OH; lactam N-7)
PP2A
  460/530 ratio After Chymotrypsin, Phosphorylated Optical probe + PP2A + microcystin-LR: 1.9 ± 0.1
  460/530 ratio Before Chymotrypsin, Phosphorylated Optical probe + PP2A + microcystin-LR: 1.4 ± 0.1
  inhibition of PP2A activity: completely inhibited
PP1
  460/530 ratio After Chymotrypsin, Phosphorylated Optical probe + PP1 + microcystin-LR: 2.8 ± 0.1
  inhibition of PP1 activity: almost completely inhibited
Chymotrypsin [1]
  460/530 ratio After Chymotrypsin, Non-phosphorylated Optical probe + PP1 + microcystin-LR: 13.3 ± 0.2
  460/530 ratio After Chymotrypsin, Non-phosphorylated Optical probe + PP2A + microcystin-LR: 11.1 ± 0.2
  460/530 ratio Before Chymotrypsin, Non-phosphorylated Optical probe + PP2A + microcystin-LR: 1.4 ± 0.1
  inhibition of chymotrypsin cleavage: did not inhibit

## AEAIYAAPL [abl substrate]
Chymotrypsin [2]
  difference in emission ratios of phosphorylated (non-cleaved) and non-phosphorylated (cleaved) substrate: 30 fold
v-Abl kinase
  turnover of the optical probe by v-Abl: 9.5 s⁻¹
v-Abl kinase; read-out: apparent Km for the substrate
  Km: 40 µM

## GDQDYLSLDK (GDQDYL[pS]LDK; also: FITC and hydroxycoumarin carboxamide labels, places not given here) [casein kinase 1 optical probe, peptide labeled with fluorescein isothiocyanate and 7-hydroxycoumarin-3-carboxamide; casein kinase 1 substrate]
[3]; 0.03 units PP2A
  460/530 Emission ratio After Chymotrypsin, Phosphorylated Control + Phosphatase (PP2A): 8.8 ± 0.1
[3]
  460/530 Emission ratio After Chymotrypsin, Non-phosphorylated Control: 11.0 ± 0.1
  460/530 Emission ratio After Chymotrypsin, Phosphorylated Control: 1.8 ± 0.2
PP2A; no inhibitor
  460/530 ratio Before Chymotrypsin, Non-phosphorylate Optical probe + PP2A: 1.4 ± 0.0
  460/530 ratio Before Chymotrypsin, Phosphorylated Optical probe + PP2A: 1.3 ± 0.0
PP2A; [7]
  460/530 ratio After Chymotrypsin, Non-phosphorylate Optical probe + PP2A: 11.1 ± 0.1
  460/530 ratio After Chymotrypsin, Phosphorylated Optical probe + PP2A: 8.8 ± 0.1
Chymotrypsin [4]; chymotrypsin 0.04 μM
  460/530 Emission Ratio, Negative Control (No Active Kinase): 3.0
  460/530 Emission Ratio, Positive Control (Active Kinase Only): 1.2
  Fold difference in ratios: 2.5
Chymotrypsin [4]; chymotrypsin 0.1 μM
  460/530 Emission Ratio, Negative Control (No Active Kinase): 6.6
  460/530 Emission Ratio, Positive Control (Active Kinase Only): 1.4
  Fold difference in ratios: 4.7
Chymotrypsin [4]; chymotrypsin 0.2 μM
  460/530 Emission Ratio, Negative Control (No Active Kinase): 10.9
  460/530 Emission Ratio, Positive Control (Active Kinase Only): 1.7
  Fold difference in ratios: 6.4
Chymotrypsin [4]; chymotrypsin 0.3 μM
  460/530 Emission Ratio, Negative Control (No Active Kinase): 12.3
  460/530 Emission Ratio, Positive Control (Active Kinase Only): 1.9
  Fold difference in ratios: 6.5
Chymotrypsin [4]; chymotrypsin 0.4 μM
  460/530 Emission Ratio, Negative Control (No Active Kinase): 14.3
  460/530 Emission Ratio, Positive Control (Active Kinase Only): 2.3
  Fold difference in ratios: 6.2
Chymotrypsin [4]; chymotrypsin 1.0 μM
  460/530 Emission Ratio, Negative Control (No Active Kinase): 15.4
  460/530 Emission Ratio, Positive Control (Active Kinase Only): 3.8
  Fold difference in ratios: 4.1
Chymotrypsin [4]; chymotrypsin 2.0 μM
  460/530 Emission Ratio, Negative Control (No Active Kinase): 15.6
  460/530 Emission Ratio, Positive Control (Active Kinase Only): 6.0
  Fold difference in ratios: 2.6
[5]; 1 unit PPI, 2 hours at 30° C., chymotrypsin 0.2 μM, 1 hour
  460/530 Emission Ratio After Chymotrypsin, Phosphorylated Control + Phosphatase (PP1): 10.0
[5]; all reactions
  460/530 ratio before chymotrypsin addition: about 1.2
[5]; chymotrypsin 0.2 μM, 1 hour
  460/530 Emission ratio After Chymotrypsin, Non-phosphorylated Control: 9.8
  460/530 Emission ratio After Chymotrypsin, Phosphorylated Control: 2.0
PP1; [8]
  460/530 ratio After Chymotrypsin, Non-phosphorylate Optical probe + PP1: 13.2 ± 0.1
  460/530 ratio After Chymotrypsin, Phosphorylated Optical probe + PP1: 13.2 ± 0.2

## VAPFSPGGRAK [optical probe designed as a substrate for extracellular signal-regulated kinase (ERK)]
Chymotrypsin [6]; time of cleavage 0 min
  460/530 Emission Ratio, Negative Control (No Active Kinase): 0.28
  460/530 Emission Ratio, Positive Control (Active Kinase): 0.33
  Fold difference in ratios: 0.85
Chymotrypsin [6]; time of cleavage 10 min
  460/530 Emission Ratio, Negative Control (No Active Kinase): 4.17
  460/530 Emission Ratio, Positive Control (Active Kinase): 0.44
  Fold difference in ratios: 9.45
Chymotrypsin [6]; time of cleavage 20 min
  460/530 Emission Ratio, Negative Control (No Active Kinase): 7.56
  460/530 Emission Ratio, Positive Control (Active Kinase): 0.56
  Fold difference in ratios: 13.55
Chymotrypsin [6]; time of cleavage 30 min
  460/530 Emission Ratio, Negative Control (No Active Kinase): 10.03
  460/530 Emission Ratio, Positive Control (Active Kinase): 0.66
  Fold difference in ratios: 15.16
Chymotrypsin [6]; time of cleavage 40 min
  460/530 Emission Ratio, Negative Control (No Active Kinase): 11.71
  460/530 Emission Ratio, Positive Control (Active Kinase): 0.78
  Fold difference in ratios: 14.99
Chymotrypsin [6]; time of cleavage 50 min
  460/530 Emission Ratio, Negative Control (No Active Kinase): 12.73
  460/530 Emission Ratio, Positive Control (Active Kinase): 0.89
  Fold difference in ratios: 14.34
Chymotrypsin [6]; time of cleavage 60 min
  460/530 Emission Ratio, Negative Control (No Active Kinase): 13.40
  460/530 Emission Ratio, Positive Control (Active Kinase): 1.00
  Fold difference in ratios: 13.36
